This is an account of results in patent US7666835B2 (Imperial Innovations Limited, priority 2001, dated 2010).

A short description of assay [1]: ICV injection, food intake in 24-h fasted rats (studies 1a, 2a). Type of assay: in vivo, rat. Conditions: study 1a; 3 nmol ICV; 24-h fasted rats; vs saline. An excerpt:
(§1) Animals had permanent stainless steel guide cannulas (Plastics One, Roanoke, Va.) stereotactically implanted ICV or iPVN.

The nature of assay [2]: iPVN injection, food intake in 24-h fasted rats (studies 1b, 2b). It is filed as in vivo, rat. The note with it: study 1b; iPVN; OXM, GLP-1 (3 nmol [sic]), exendin-4 0.03 nmol, glicentin, glucagon 1 nmol, SP-1 3 nmol; fasted rats. How it is done: as §1
Therefore, exendin-4 was injected iPVN at a dose of 0.03 nmol.

B1: glicentin (peptide, UniProt P01275 21-89, looked up)
Glicentin: RSLQDTEEKSRSFSASQADPLSDPDQMNEDKRHSQGTFTSDYSKYLDSRRAQDFVQWLMNTKRNRNNIA
modifications: Glicentin
notes: proglucagon-derived peptide purchased from Peninsula Laboratories
For B1, in assay [1], the “refeeding (food intake) after ICV injection” value is recorded as “failed to affect food intake at any time point”. For the same molecule, the “refeeding (food intake) after iPVN injection” value in assay [2] is “failed to affect food intake at any time point”.
